Source: patent US20240124586A1 (WUXI BIOLOGICS IRELAND, published 2024)
Read-outs that look alike come from different tables or passages of the source.

Legend:
[1] = biological target: T1, human PD-1 on engineered CHO-S cells (W305-CHO-S.hPro1.C6) (human, UniProt Q15116 25-288); assay: FACS on human PD-1 engineered cells
T1 construct: whole, on cells; also called human PD-1 engineered cells; PD-1+ cells
Description: (§1) Engineered human PD-1 expressing cells W305-CHO-S.hPro1.C6 were seeded at 1×10⁵ cells/well in U-bottom 96-well plates (COSTAR 3799). Antibodies with 3.16-fold titration in 1% BSA DPBS from 200 nM to 0.002 nM were added to the cells. The plates were incubated at 4° C. for 1 hour. After wash, […] 1:125 diluted PE-labeled goat anti-human antibody (Jackson 109-115-098) was added to each well and the plates were incubated at 4° C. for 1 hour. The binding of the antibodies onto the cells was tested by flow cytometry and the mean fluorescence intensity (MFI) was analyzed by FlowJo.

[2] = biological target: T2, human CTLA-4 on engineered 293F cells (W316-293F.hPro1.FL) (human, UniProt P16410 36-223); assay: FACS on human CTLA-4 engineered cells
T2 construct: whole, on cells; also called human CTLA-4 engineered cells; CTLA-4+ cells
Description: 3.16-fold titrated Abs with 1% BSA DPBS from 200 nM to 0.002 nM were added to the cells. Plates were incubated at 4° C. for 1 hour. After wash, […] 1:150 diluted PE-labeled goat anti-human antibody (Jackson 109-115-098) was added to each well and the plates were incubated at 4° C. for 1 hour. The binding of the antibodies onto the cells was tested by flow cytometry and the mean fluorescence intensity (MFI) was analyzed by FlowJo.

[3] = biological target: T1, human PD-1 on engineered CHO-S cells …; assay: FACS on human PD-1 engineered cells; remark: listed apart in the source
Description: as §1

[4] = biological target: T3, human CD19 on CD19+ B cell lines (Ramos, Raji) (human, UniProt P15391 20-556); assay: cell-based or functional assay
T3 sequence (looked up): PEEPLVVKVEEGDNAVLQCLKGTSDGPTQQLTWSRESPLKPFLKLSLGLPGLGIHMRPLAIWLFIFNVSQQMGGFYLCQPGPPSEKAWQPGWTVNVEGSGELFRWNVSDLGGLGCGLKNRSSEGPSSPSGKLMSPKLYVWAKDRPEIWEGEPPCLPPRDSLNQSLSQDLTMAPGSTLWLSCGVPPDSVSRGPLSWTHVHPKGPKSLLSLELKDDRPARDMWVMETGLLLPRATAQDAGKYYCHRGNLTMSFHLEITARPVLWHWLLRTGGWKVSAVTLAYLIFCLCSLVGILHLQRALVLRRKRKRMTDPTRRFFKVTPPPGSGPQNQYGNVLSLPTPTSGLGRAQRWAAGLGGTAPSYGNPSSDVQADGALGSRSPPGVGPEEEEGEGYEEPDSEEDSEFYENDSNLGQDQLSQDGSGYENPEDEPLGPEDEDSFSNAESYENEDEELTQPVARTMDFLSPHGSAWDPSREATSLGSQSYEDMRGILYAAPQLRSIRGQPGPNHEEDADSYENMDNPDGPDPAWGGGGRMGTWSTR

[5] = biological target: T4, human CD3 on CD3+ Jurkat cells (human, UniProt P07766 23-207; P09693 23-182; P04234 22-171); assay: FACS on CD3+ Jurkat cells, Expi293 supernatant
T4 construct: whole, on cells; also called CD3 positive Jurkat cells

[6] = biological target: T5, cynomolgus CTLA-4 on engineered 293F cells (W316-293F.cynoPro1.F1.Pool) (cynomolgus); assay: FACS binding to cynomolgus CTLA-4 engineered cells
T5 construct: whole, on cells; also called cynomolgus CTLA-4 engineered cells
Description: 4-fold titrated Abs with 1% BSA DPBS from 40 μg/ml to 0.00004 μg/ml were added to the cells. Plates were incubated at 4° C. for 1 hour. After wash, […] 1:150 diluted PE-labeled goat anti-human antibody (Jackson 109-115-098) was added to each well and the plates were incubated at 4° C. for 1 hour. The binding of the antibodies onto the cells was tested by flow cytometry and the mean fluorescence intensity (MFI) was analyzed by FlowJo.

[7] = biological target: T1, human PD-1 on engineered CHO-S cells …; assay: FACS competition: blocks human PD-L1 protein (W315-hPro1.ECD.mFc) binding to human PD-1 engineered cells
Description: In order to test whether the bispecific antibodies could block hPD-L1 binding to hPD-1 protein, a competitive FACS was conducted. […] Plates were incubated at 4° C. for 1 hour. After wash, the binding of W315-hPro1.ECD.mFc to cell expressive human PD-1 was detected by FITC-labeled goat anti-mouse antibody (abcam 98716 1:125). The competition binding of antibodies to the cells was tested by flow cytometry and the mean fluorescence intensity (MFI) was analyzed by FlowJo.

[8] = biological target: T6, cynomolgus PD-1 on engineered 293F cells (W305-293F.cynoPro1.FL.pool) (cynomolgus); assay: FACS binding to cynomolgus PD-1 engineered cells
T6 construct: whole, on cells; also called cynomolgus PD-1 engineered cells
Description: 4.0-fold titrated Abs with 1% BSA DPBS from 40 μg/ml to 0.0001526 μg/ml were added to the cells. Plates were incubated at 4° C. for 1 hour. After wash, […] 1:150 diluted PE-labeled goat anti-human antibody (Jackson 109-115-098) was added to each well and the plates were incubated at 4° C. for 1 hour. The binding of the antibodies onto the cells was tested by flow cytometry and the mean fluorescence intensity (MFI) was analyzed by FlowJo.

T4 sequence (P07766 23-207, chain 1 of 3): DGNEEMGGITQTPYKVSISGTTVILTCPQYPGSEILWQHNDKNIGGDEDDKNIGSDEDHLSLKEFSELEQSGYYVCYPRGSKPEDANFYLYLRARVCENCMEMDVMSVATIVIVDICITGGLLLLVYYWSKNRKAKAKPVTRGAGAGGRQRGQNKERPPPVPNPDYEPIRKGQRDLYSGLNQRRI
T4 sequence (P09693 23-182, chain 2 of 3): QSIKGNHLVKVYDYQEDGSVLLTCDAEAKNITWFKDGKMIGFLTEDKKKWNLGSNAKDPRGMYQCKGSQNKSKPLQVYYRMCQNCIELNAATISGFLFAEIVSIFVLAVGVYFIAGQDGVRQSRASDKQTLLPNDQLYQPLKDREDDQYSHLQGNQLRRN
T4 sequence (P04234 22-171, chain 3 of 3): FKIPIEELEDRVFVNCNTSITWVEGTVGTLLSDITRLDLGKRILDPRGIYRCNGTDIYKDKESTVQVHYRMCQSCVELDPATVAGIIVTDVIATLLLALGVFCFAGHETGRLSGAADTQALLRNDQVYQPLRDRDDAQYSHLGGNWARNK
T1 sequence (Q15116 25-288, change not shown): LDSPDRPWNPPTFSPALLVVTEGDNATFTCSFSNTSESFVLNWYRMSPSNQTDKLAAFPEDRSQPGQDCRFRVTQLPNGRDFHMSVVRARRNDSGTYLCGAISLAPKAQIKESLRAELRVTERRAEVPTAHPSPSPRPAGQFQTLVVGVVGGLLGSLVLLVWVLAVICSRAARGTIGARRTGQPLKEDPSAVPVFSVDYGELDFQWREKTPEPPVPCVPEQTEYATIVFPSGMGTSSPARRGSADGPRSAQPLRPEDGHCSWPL
T2 sequence (P16410 36-223, change not shown): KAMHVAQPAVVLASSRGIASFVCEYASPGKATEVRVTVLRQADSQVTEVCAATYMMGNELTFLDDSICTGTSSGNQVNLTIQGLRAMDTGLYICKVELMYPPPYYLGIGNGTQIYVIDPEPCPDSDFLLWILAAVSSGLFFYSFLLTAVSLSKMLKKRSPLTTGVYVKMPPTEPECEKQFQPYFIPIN

B1: U6T1.G19.IgG4, bispecific anti-PD-1 x CTLA-4 (bispecific antibody)
heavy: not shown
light 1: SYELTQPLSVSVALGQTARITCGGDNIGNKDVHWYQQKPGQAPVLVIYRDSNRPSGIPEGFSGSNSGNTATLTISRAQAGDEADYYCQVWDSIWVFGGGTKLTVLGQPKAAPSVTLFPPSSEELQANKATLVCLISDFYPGAVTVAWKADSSPVKAGVETTTPSKQSNNKYAASSYLSLTPEQWKSHKSYSCQVTHEGSTVEKTVAPTECS
light 2: not shown
notes: Symmetric tetravalent format G19; also called U6T1 in G19 format
EC50 [1]: 2.19 nM

B2: U6T5.G19.IgG4, bispecific anti-PD-1 x CTLA-4 (bispecific antibody)
heavy: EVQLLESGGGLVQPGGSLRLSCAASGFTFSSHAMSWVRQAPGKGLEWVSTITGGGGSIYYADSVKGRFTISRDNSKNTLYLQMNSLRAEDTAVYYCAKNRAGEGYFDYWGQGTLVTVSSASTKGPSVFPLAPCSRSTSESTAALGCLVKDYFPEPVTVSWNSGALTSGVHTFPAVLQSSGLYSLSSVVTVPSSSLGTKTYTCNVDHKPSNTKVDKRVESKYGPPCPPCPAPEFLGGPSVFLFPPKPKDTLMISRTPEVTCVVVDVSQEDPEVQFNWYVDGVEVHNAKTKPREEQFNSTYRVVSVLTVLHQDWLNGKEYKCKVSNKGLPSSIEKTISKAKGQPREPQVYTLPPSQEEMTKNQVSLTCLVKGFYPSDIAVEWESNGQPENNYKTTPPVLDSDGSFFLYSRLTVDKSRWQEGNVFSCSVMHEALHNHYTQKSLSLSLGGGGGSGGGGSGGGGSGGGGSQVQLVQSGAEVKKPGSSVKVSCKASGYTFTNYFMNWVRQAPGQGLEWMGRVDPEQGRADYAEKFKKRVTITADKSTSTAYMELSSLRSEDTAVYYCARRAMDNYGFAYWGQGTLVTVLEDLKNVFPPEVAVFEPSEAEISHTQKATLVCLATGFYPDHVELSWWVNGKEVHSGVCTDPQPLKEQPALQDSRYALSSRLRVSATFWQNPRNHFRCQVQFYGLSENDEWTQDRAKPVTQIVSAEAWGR
light 1: SYELTQPLSVSVALGQTARITCGGDNIGNKDVHWYQQKPGQAPVLVIYRDSNRPSGIPEGFSGSNSGNTATLTISRAQAGDEADYYCQVWDSIWVFGGGTKLTVLGQPKAAPSVTLFPPSSEELQANKATLVCLISDFYPGAVTVAWKADSSPVKAGVETTTPSKQSNNKYAASSYLSLTPEQWKSHKSYSCQVTHEGSTVEKTVAPTECS
light 2: EIVLTQSPDFQSVTPKEKVTITCSANSALSYMYWYQQKPDQSPKLWVHGTSNLASGVPSRFSGSGSGTDFTLTINSLEAEDAATYYCHHWSNTQWTFGGGTKVEIKPDIQNPDPAVYQLRDSKSSDKSVCLFTDFDSQTQVSQSKDSDVYITDKCVLDMRSMDFKSNSAVAWSQKSDFACANAFQNSIIPEDTFFPSPESS
notes: T5 = anti-CTLA-4 antibody W3162_1.154.8-z35; also called U6T5 in G19 format
EC50 [2]: 8.93 nM | EC50 [3]: 0.97 nM

B3: T1U6.G19.IgG4, bispecific anti-CTLA-4 x PD-1 (bispecific antibody)
heavy: not shown
light 1: not shown
light 2: SYELTQPLSVSVALGQTARITCGGDNIGNKDVHWYQQKPGQAPVLVIYRDSNRPSGIPEGFSGSNSGNTATLTISRAQAGDEADYYCQVWDSIWVFGGGTKLTVLPDIQNPDPAVYQLRDSKSSDKSVCLFTDFDSQTQVSQSKDSDVYITDKCVLDMRSMDFKSNSAVAWSQKSDFACANAFQNSIIPEDTFFPSPESS
notes: Symmetric tetravalent format G19; T1 (ipilimumab) on top, U6 (W3055_1.153.7) as TCR-chimeric Fab at the C-terminus
EC50 [1]: 7.93 nM

B4: E17-Design_2-QQQQ (IgG1), bispecific anti-CD3 x CD19 (bispecific antibody)
heavy 1: not shown
light 1: DIVMTQSPDSLAVSLGERATINCKSSQSLLNSRTRKNYLAWYQQKPGQPPKLLIYWASTRQSGVPDRFSGSGSGTDFTLTISSLQAEDVAVYYCTQSHTLRTFGGGTKVEIKPDIQNPDPAVYQLRDSKSSDKSVCLFTDFDSQTQVSQSKDSDVYITDKCVLDMRSMDFKSNSAVAWSQKSDFACANAFQNSIIPEDTFFPSPESS
heavy 2: QMQLVQSGPEVKKPGTSVKVSCKASGYAFTSYNMYWVRQARGQRLEWIGYIDPYNGDTTYNQKFKGRVTITRDMSTSTAYMELSSLRSEDTAVYYCLTTAYAMDYWGQGTLVTVSSASTKGPSVFPLAPSSKSTSGGTAALGCLVKDYFPEPVTVSWNSGALTSGVHTFPAVLQSSGLYSLSSVVTVPSSSLGTQTYICNVNHKPSNTKVDKRVEPKSCDKTHTCPPCPAPEAAGGPSVFLFPPKPKDTLMISRTPEVTCVVVDVSHEDPEVKFNWYVDGVEVHNAKTKPREEQYNSTYRVVSVLTVLHQDWLNGKEYKCKVSNKALPAPIEKTISKAKGQPREPQVCTLPPSREEMTKNQVSLSCAVKGFYPSDIAVEWESNGQPENNYKTTPPVLDSDGSFFLVSKLTVDKSRWQQGNVFSCSVMHEALHNHYTQKSLSLSPGK
light 2: DIQLTQSPSFLSASVGDRVTITCSASSTVNYMHWYQQKPGKAPKLLIYSTSNLASGVPSRFSGSGSGTEFTLTISSLQPEDFATYYCHQWSSYPYTFGQGTKLEIKRTVAAPSVFIFPPSDEQLKSGTASVVCLLNNFYPREAKVQWKVDNALQSGNSQESVTEQDSKDSTYSLSSTLTLSKADYEKHKVYACEVTHQGLSSPVTKSFNRGEC
EC50 of T-cell directed killing of malignant B cells (PI-positive Raji cells) [4]: 0.624 nM

B5: T3-Design_2-QQQQ (IgG1) (antibody)
heavy: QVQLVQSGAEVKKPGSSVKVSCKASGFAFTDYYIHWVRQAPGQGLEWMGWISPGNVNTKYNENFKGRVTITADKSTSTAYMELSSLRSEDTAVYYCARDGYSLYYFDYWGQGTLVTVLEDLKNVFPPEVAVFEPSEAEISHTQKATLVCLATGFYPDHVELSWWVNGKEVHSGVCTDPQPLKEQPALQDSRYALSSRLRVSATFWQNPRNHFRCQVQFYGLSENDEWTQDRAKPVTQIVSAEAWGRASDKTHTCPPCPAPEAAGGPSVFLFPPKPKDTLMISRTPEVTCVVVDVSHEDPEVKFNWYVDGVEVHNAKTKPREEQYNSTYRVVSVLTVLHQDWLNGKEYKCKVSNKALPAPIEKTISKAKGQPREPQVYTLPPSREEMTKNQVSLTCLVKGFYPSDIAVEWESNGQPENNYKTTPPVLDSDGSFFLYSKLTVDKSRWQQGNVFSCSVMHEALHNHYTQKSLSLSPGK
light: DIVMTQSPDSLAVSLGERATINCKSSQSLLNSRTRKNYLAWYQQKPGQPPKLLIYWASTRQSGVPDRFSGSGSGTDFTLTISSLQAEDVAVYYCTQSHTLRTFGGGTKVEIKPDIQNPDPAVYQLRDSKSSDKSVCLFTDFDSQTQVSQSKDSDVYITDKCVLDMRSMDFKSNSAVAWSQKSDFACANAFQNSIIPEDTFFPSPESS
notes: De-glycosylation mutant of Design_2; tested as supernatant
EC50 (read off the curve) [5]: ~0.6 nM

B6: T3-Design_2-AAAA (IgG1) (antibody)
heavy: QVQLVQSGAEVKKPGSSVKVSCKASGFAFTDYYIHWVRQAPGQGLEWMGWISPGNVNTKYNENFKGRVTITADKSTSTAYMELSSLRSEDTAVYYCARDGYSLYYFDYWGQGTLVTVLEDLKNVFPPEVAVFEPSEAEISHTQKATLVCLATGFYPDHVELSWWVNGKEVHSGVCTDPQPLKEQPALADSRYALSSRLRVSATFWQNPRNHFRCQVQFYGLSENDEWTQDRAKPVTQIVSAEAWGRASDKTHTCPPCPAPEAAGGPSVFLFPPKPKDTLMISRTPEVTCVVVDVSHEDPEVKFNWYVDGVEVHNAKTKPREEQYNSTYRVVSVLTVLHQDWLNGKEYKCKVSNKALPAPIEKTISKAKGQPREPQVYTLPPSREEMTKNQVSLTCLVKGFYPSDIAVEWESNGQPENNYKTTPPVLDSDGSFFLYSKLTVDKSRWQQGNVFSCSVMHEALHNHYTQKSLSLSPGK
light: DIVMTQSPDSLAVSLGERATINCKSSQSLLNSRTRKNYLAWYQQKPGQPPKLLIYWASTRQSGVPDRFSGSGSGTDFTLTISSLQAEDVAVYYCTQSHTLRTFGGGTKVEIKPDIQNPDPAVYQLRDSKSSDKSVCLFTDFDSQTAVSQSKDSDVYITDKCVLDMRSMDFKSNSAVAWSAKSDFACANAFANSIIPEDTFFPSPESS
notes: as for B5
EC50 (read off the curve) [5]: ~0.5 nM

B7: T3-Design_2-QSKE (IgG1) (antibody)
heavy: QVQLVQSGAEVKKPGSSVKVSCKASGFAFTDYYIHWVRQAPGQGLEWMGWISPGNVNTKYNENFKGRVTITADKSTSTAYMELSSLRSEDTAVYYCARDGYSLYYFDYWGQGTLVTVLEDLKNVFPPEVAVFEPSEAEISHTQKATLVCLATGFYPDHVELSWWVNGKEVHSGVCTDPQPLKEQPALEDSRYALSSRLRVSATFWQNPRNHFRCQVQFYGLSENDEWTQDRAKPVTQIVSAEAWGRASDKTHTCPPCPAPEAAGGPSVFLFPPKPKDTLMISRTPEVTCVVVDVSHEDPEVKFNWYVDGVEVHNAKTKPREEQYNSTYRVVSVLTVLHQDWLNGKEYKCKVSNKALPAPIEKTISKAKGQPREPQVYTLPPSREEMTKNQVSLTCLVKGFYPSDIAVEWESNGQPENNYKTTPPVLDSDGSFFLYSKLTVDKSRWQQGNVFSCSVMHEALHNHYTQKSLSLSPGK
light: DIVMTQSPDSLAVSLGERATINCKSSQSLLNSRTRKNYLAWYQQKPGQPPKLLIYWASTRQSGVPDRFSGSGSGTDFTLTISSLQAEDVAVYYCTQSHTLRTFGGGTKVEIKPDIQNPDPAVYQLRDSKSSDKSVCLFTDFDSQTQVSQSKDSDVYITDKCVLDMRSMDFKSNSAVAWSSKSDFACANAFKNSIIPEDTFFPSPESS
notes: as for B5
EC50 (read off the curve) [5]: ~0.5 nM

B8: T3-Design_2-ASKE (IgG1) (antibody)
heavy: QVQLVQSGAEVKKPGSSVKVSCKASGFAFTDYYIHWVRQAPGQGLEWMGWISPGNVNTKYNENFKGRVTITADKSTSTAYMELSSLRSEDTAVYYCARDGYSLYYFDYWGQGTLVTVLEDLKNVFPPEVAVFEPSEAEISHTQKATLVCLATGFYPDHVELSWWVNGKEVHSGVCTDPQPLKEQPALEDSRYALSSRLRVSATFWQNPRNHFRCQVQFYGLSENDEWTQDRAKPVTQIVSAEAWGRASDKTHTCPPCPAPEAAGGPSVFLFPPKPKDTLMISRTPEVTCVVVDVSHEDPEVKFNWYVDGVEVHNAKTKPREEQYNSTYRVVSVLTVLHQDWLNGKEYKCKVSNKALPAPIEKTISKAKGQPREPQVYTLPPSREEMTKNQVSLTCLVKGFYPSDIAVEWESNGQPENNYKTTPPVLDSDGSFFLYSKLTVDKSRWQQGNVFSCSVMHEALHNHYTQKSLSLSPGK
light: DIVMTQSPDSLAVSLGERATINCKSSQSLLNSRTRKNYLAWYQQKPGQPPKLLIYWASTRQSGVPDRFSGSGSGTDFTLTISSLQAEDVAVYYCTQSHTLRTFGGGTKVEIKPDIQNPDPAVYQLRDSKSSDKSVCLFTDFDSQTAVSQSKDSDVYITDKCVLDMRSMDFKSNSAVAWSSKSDFACANAFKNSIIPEDTFFPSPESS
notes: as for B5
EC50 (read off the curve) [5]: ~0.5 nM

B9: T3-Design_2-QQQQQ (IgG1) (antibody)
heavy: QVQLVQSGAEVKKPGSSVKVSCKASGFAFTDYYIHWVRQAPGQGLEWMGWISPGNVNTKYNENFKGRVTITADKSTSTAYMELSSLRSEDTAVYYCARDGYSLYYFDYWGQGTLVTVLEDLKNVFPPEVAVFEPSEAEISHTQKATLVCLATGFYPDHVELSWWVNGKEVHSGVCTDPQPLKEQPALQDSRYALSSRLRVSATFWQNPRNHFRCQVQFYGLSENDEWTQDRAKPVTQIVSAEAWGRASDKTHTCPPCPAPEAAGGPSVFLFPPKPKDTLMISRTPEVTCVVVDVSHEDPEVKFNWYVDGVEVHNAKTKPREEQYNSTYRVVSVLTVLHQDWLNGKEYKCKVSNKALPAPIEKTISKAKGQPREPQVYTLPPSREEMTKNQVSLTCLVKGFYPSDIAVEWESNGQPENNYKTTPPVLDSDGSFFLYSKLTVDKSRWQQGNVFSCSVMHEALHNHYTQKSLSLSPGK
light: DIVMTQSPDSLAVSLGERATINCKSSQSLLNSRTRKNYLAWYQQKPGQPPKLLIYWASTRQSGVPDRFSGSGSGTDFTLTISSLQAEDVAVYYCTQSHTLRTFGGGTKVEIKPDIQNPDPAVYQLRDSKSSDKSVCLFTDFDSQTQVSQSKDSDVYITDKCVLDMRSMDFKSQSAVAWSQKSDFACANAFQNSIIPEDTFFPSPESS
notes: as for B5
EC50 (read off the curve) [5]: ~0.4 nM

B10: WBP316-BMK1.IgG4 (antibody, V domains shown)
VH: QVQLVESGGGVVQPGRSLRLSCAASGFTFSSYTMHWVRQAPGKGLEWVTFISYDGNNKYYADSVKGRFTISRDNSKNTLYLQMNSLRAEDTAIYYCARTGWLGPFDYWGQGTLVTVSS
VL: not shown
notes: also called WBP316-BMK1 (Ipilimumab)
EC50 [6]: 0.674 nM | Top(MFI) [6]: 8050 MFI

B11: WBP3055_1.153.7.hAb (antibody, V domains shown)
VH: EVQLLESGGGLVQPGGSLRLSCAASGFTFSSHAMSWVRQAPGKGLEWVSTITGGGGSIYYADSVKGRFTISRDNSKNTLYLQMNSLRAEDTAVYYCAKNRAGEGYFDYWGQGTLVTVSS
VL: SYELTQPLSVSVALGQTARITCGGDNIGNKDVHWYQQKPGQAPVLVIYRDSNRPSGIPEGFSGSNSGNTATLTISRAQAGDEADYYCQVWDSIWVFGGGTKLTVL
notes: anti-PD-1 antibody, parent of the U6 arm; also called W3055_1.153.7 (named U6); WBP3055-1.153.7.uIgG4k
IC50 [7]: 0.888 nM | Inhibition % [7]: 98.6% | EC50 [8]: 3.48 nM | Top(MFI) [8]: 56700 MFI
